Results on 1 molecule are retold here after PMC10870823 (mBio, 2023).

The target of the assay is T1, SARS-CoV-2 (Wuhan / WA-1) Spike RBD-mouse IgG2a Fc fusion protein (SARS-CoV-2, UniProt P0DTC2).
T1 construct: source: recombinant, purified
Put plainly: BLI. The following applies: both partners purified.

B1: FG-10A3 (Family G clone 10A3) human anti-SARS-CoV-2 Spike RBD monoclonal antibody (antibody, V domains shown)
VH: QVQLVESGGGVVQPGRSLRLSCAASGFTFSSYGMNWVRQAPGKGLEWVAIIWYDGNNTYYVDSVKGRFTISRDNSKNTLYLQMNSLRAEDTAVYYCARKDGSKTYYGYYFDYWGQGTLVTVSS
VL: DIQMTQSPSSLSASVGDRVTITCRASQSIHSFLNWYQQKPGKPPNLLIYAASSLQSGLPSRFSGSGSGTDFTLTISSLQPEDFATYYCQQSYITPPTFGHGTKVEIK
notes: also called Family G (FG)-10A3
For B1, the Kd is 0.125 nM.

The Kd is the concentration at which binding is half-saturated. Read a high Kd as a looser complex.
